What all share (experiment): purified protein
Substrate in series [1]: CCOP(=O)(OCC)SCCSCC
The class given is biochemical, Mus musculus. The settings on record: 1 mM Ca2+, 50 mM Tris-HCl pH 8.0, 0.1 mM DTNB, substrate range 1-10 mM.

Substrate in series [2]: O=C1CCCS1
The series is classed as biochemical, Mus musculus. Conditions: 1 mM Ca2+, 50 mM Tris-HCl pH 7.0, 0.1 mM DTNB, substrate range 1-10 mM.

Substrate in series [3]: CCOP(=O)(OCC)SCCSCC
The series is classed as biochemical, Homo sapiens. Conditions: 1 mM Ca2+, 50 mM Tris-HCl pH 8.0, 0.1 mM DTNB, substrate range 1-10 mM.

Substrate in series [4]: O=C1CCCS1
The series is classed as biochemical, Homo sapiens. Conditions: 1 mM Ca2+, 50 mM Tris-HCl pH 7.0, 0.1 mM DTNB, substrate range 1-10 mM.

B1: MoSMP30 (Mus musculus) (protein)
chain: MSSIKVECVLRENYRCGESPVWEEASQSLLFVDIPSKIICRWDTVSNQVQRVAVDAPVSSVALRQLGGYVATIGTKFCALNWENQSVFVLAMVDEDKKNNRFNDGKVDPAGRYFAGTMAEETAPAVLERHQGSLYSLFPDHSVKKYFDQVDISNGLDWSLDHKIFYYIDSLSYTVDAFDYDLQTGQISNRRIVYKMEKDEQIPDGMCIDAEGKLWVACYNGGRVIRLDPETGKRLQTVKLPVDKTTSCCFGGKDYSEMYVTCARDGLNAEGLLRQPDAGNIFKITGLGVKGIAPYSYAG
As to B1, in “purified protein [1]”, the Km was found to be 3.57 ± 1.5 mM, the Vmax worked out at 0.0085 µM/min, the kcat was 0.00193 s⁻¹ and the kcat/Km came out at 0.533 M⁻¹ s⁻¹. Moreover, in the series “purified protein [2]”, the Km is 39.49 ± 7.9 mM, the Vmax amounted to 0.286 µM/min, the catalytic constant (kcat) was 0.0647 s⁻¹ and the kcat/Km is 1.63 M⁻¹ s⁻¹.

B2: HuSMP30 (Homo sapiens) (protein)
chain: MSSIKIECVLPENCRCGESPVWEEVSNSLLFVDIPAKKVCRWDSFTKQVQRVTMDAPVSSVALRQSGGYVATIGTKFCALNWKEQSAVVLATVDNDKKNNRFNDGKVDPAGRYFAGTMAEETAPAVLERHQGALYSLFPDHHVKKYFDQVDISNGLDWSLDHKIFYYIDSLSYSVDAFDYDLQTGQISNRRSVYKLEKEEQIPDGMCIDAEGKLWVACYNGGRVIRLDPVTGKRLQTVKLPVDKTTSCCFGGKNYSEMYVTCARDGMDPEGLLRQPEAGGIFKITGLGVKGIAPYSYAG
Take B2: in “purified protein [3]”, the Km is given as 17.45 ± 5 mM, the Vmax stood at 0.0357 µM/min, the kcat turned out to be 0.00808 s⁻¹ and the kcat/Km came out at 0.467 M⁻¹ s⁻¹. In “purified protein [4]”, the Michaelis constant (Km) came to 19.8 ± 2.9 mM, the Vmax amounted to 0.453 µM/min, the kcat stood at 0.102 s⁻¹ and the kcat/Km is 5.17 M⁻¹ s⁻¹.

For the origin of these results see publication PMC6586323, “Comparative analysis of the metal-dependent structural and functional properties of mouse and human SMP30” (PLoS ONE, 2019).
